Target: T1, human PCSK9 (human, UniProt Q8NBP7 31-692)
T1 construct: Soluble analyte in the ForteBio assay; also called human proprotein convertase subtilisin/kexin type 9
Experiment: ForteBio BLI, biotinylated antibody on streptavidin probes, PCSK9 in solution
Procedure: ForteBio affinity assays were implemented according to the prior art. […] After the buffer exchange, the protein content was measured by the absorbance at 280 nm, and the concentration was adjusted to 2 mg/mL. 2 mg of Sulfo-NHS-Biotin was equilibrated to room temperature and added to […] of ultrapure water to give a 10 mM Biotin stock solution. 1 mL of 2 mg/mL JS002 and evolocumab were transferred to a new EP tube, and 8 μL of biotin stock solution was added according to a ratio of protein:biotin=1:6. The mixture was well mixed and incubated at room temperature for 1-2 h. […] After the buffer exchange, the protein content was measured by the absorbance at 280 nm, and the concentration was adjusted to 1-2 mg/mL. The biotinylated protein was aliquoted in tubes at 0.1 mL per tube, and was stored at −80° C. with no more than 1 freeze-thaw. […] The affinity constant was calculated by the formula=koff/kₒₙ.

Kd [nM]	koff [s⁻¹]	kon [M⁻¹ s⁻¹]	Binder
0.651	3.21e-05	49200	evolocumab (antibody, V domains shown) VH: QVQLVQSGAEVKKPGASVKVSCKASGYTLTSYGISWVRQAPGQGLEWMGWVSFYNGNTNYAQKLQGRGTMTTDPSTSTAYMELRSLRSDDTAVYYCARGYGMDVWGQGTTVTVSS VL: QSALTQPASVSGSPGQSITISCTGTSSDVGGYNSVSWYQQHPGKAPKLMIYEVSNRPSGVSNRFSGSKSGNTASLTISGLQAEDEADYYCNSYTSTSMVFGGGTKLTVL
0.0215	1.3e-06	60200	JS002 (antibody, human IgG4 S228P, kappa, V domains shown, Full-length humanized antibody; In the ForteBio assay it was biotinylated with Sulfo-NHS-Biotin (protein:biotin 1:6) and held on streptavidin probes; Tested from various liquid formulations (no. 20, 28-31); also called recombinant humanized anti-PCSK9 monoclonal antibody; anti-PCSK9 antibody) VH: QVQLQESGPGLVKPSQTLSLTCTVSGFSISSYGIHWIRQSPGKGLEWIGVIWRGGITDYNAPFMSRVTISKDNSKNQVSFKLSSVTAADTAVYYCANHRDWGQGTLVTVSS VL: DIQMTQSPSSLSASVGDRVTITCQASQDINKYIDWYQHKPGKAPKLLIHYASTLQPGVPSRFSGSGSGRDYTFTISSLQPEDIATYYCLQYDDLWTFGQGTKVEIKR
